7 molecules from PMC3516615 (Structure (London, England : 1993), 2012) can be followed below.

Assay [1] has as its target EphA2, full length, R950T, expressed in U87 cells (human, UniProt P29317 24-976, R950T). The assay can be described thus: co-IP.
The target of the next assay is T1, EphA2 SAM domain K917D (human, UniProt P29317 897-976, K917D).
T1 sequence (looked up): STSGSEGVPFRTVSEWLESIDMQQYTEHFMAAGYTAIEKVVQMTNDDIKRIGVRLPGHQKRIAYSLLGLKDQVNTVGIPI
As to the kind of experiment: ITC.

The target of another assay is T2, EphA2 SAM domain K917E (human, UniProt P29317 897-976, K917E).
T2 sequence (looked up): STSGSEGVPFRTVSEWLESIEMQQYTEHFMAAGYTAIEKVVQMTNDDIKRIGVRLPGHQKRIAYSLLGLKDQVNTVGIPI
As to the kind of experiment: ITC.

In assay [2] the target is T3, EphA2 SAM domain (wild type) (human, UniProt P29317 897-976).
T3 sequence (looked up): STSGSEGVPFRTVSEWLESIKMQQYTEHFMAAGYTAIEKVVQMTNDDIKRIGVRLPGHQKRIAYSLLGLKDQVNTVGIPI
The assay can be described thus: ITC.

Another assay concerns the target T4, EphA2 SAM domain R950E (human, UniProt P29317 897-976, R950E).
T4 sequence (looked up): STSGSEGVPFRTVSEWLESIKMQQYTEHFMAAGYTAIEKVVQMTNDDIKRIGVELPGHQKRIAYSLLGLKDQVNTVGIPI
As to the kind of experiment: ITC.

For assay [3], the target named is T3, EphA2 SAM domain (wild type). As to the kind of experiment: ITC. The source holds these as a separate data set.
The target in a further assay is T5, EphA2 SAM domain K956D (human, UniProt P29317 897-976, K956D).
T5 sequence (looked up): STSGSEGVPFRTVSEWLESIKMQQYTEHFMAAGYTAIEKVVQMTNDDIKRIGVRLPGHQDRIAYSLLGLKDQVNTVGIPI
As to the kind of experiment: ITC.

B1: SHIP2 (SH2-linked inositol phosphatase 2), endogenous in U87 cells (enzyme, human (endogenous in U87), UniProt O15357 1-1258, looked up)
chain: MASACGAPGPGGALGSQAPSWYHRDLSRAAAEELLARAGRDGSFLVRDSESVAGAFALCVLYQKHVHTYRILPDGEDFLAVQTSQGVPVRRFQTLGELIGLYAQPNQGLVCALLLPVEGEREPDPPDDRDASDGEDEKPPLPPRSGSTSISAPTGPSSPLPAPETPTAPAAESAPNGLSTVSHDYLKGSYGLDLEAVRGGASHLPHLTRTLATSCRRLHSEVDKVLSGLEILSKVFDQQSSPMVTRLLQQQNLPQTGEQELESLVLKLSVLKDFLSGIQKKALKALQDMSSTAPPAPQPSTRKAKTIPVQAFEVKLDVTLGDLTKIGKSQKFTLSVDVEGGRLVLLRRQRDSQEDWTTFTHDRIRQLIKSQRVQNKLGVVFEKEKDRTQRKDFIFVSARKREAFCQLLQLMKNKHSKQDEPDMISVFIGTWNMGSVPPPKNVTSWFTSKGLGKTLDEVTVTIPHDIYVFGTQENSVGDREWLDLLRGGLKELTDLDYRPIAMQSLWNIKVAVLVKPEHENRISHVSTSSVKTGIANTLGNKGAVGVSFMFNGTSFGFVNCHLTSGNEKTARRNQNYLDILRLLSLGDRQLNAFDISLRFTHLFWFGDLNYRLDMDIQEILNYISRKEFEPLLRVDQLNLEREKHKVFLRFSEEEISFPPTYRYERGSRDTYAWHKQKPTGVRTNVPSWCDRILWKSYPETHIICNSYGCTDDIVTSDHSPVFGTFEVGVTSQFISKKGLSKTSDQAYIEFESIEAIVKTASRTKFFIEFYSTCLEEYKKSFENDAQSSDNINFLKVQWSSRQLPTLKPILADIEYLQDQHLLLTVKSMDGYESYGECVVALKSMIGSTAQQFLTFLSHRGEETGNIRGSMKVRVPTERLGTRERLYEWISIDKDEAGAKSKAPSVSRGSQEPRSGSRKPAFTEASCPLSRLFEEPEKPPPTGRPPAPPRAAPREEPLTPRLKPEGAPEPEGVAAPPPKNSFNNPAYYVLEGVPHQLLPPEPPSPARAPVPSATKNKVAITVPAPQLGHHRHPRVGEGSSSDEESGGTLPPPDFPPPPLPDSAIFLPPSLDPLPGPVVRGRGGAEARGPPPPKAHPRPPLPPGPSPASTFLGEVASGDDRSCSVLQMAKTLSEVDYAPAGPARSALLPGPLELQPPRGLPSDYGRPLSFPPPRIRESIQEDLAEEAPCLQGGRASGLGEAGMSAWLRAIGLERYEEGLVHNGWDDLEFLSDITEEDLEEAGVQDPAHKRLLLDTLQLSK
Regarding B1, the “fold binding against wild type EphA2” value in assay [1] is ~2 fold.

B2: SHIP2 SAM domain D1224K (domain or fragment, human, UniProt O15357 1192-1258, looked up)
chain: RASGLGEAGMSAWLRAIGLERYEEGLVHNGWDKLEFLSDITEEDLEEAGVQDPAHKRLLLDTLQLSK
Regarding B2, in the assay with EphA2 SAM domain K917D, binding was put at a Kd of 10 ± 2 µM and the dH is -2.5 kcal/mol.

B3: SHIP2 SAM domain E1226K (domain or fragment, human, UniProt O15357 1192-1258, looked up)
chain: RASGLGEAGMSAWLRAIGLERYEEGLVHNGWDDLKFLSDITEEDLEEAGVQDPAHKRLLLDTLQLSK
In the case of B3, in the assay with EphA2 SAM domain K917E, the Kd came to 15.4 ± 1.9 µM and the dH is -2 kcal/mol.

B4: SHIP2 SAM domain H1219S (domain or fragment, human, UniProt O15357 1192-1258, looked up)
chain: RASGLGEAGMSAWLRAIGLERYEEGLVSNGWDDLEFLSDITEEDLEEAGVQDPAHKRLLLDTLQLSK
Consider B4, for which the “fold enhancement of the interaction against the wild-type pair” value in assay [2] is ~4 fold.

B5: SHIP2 SAM domain H1219R (domain or fragment, human, UniProt O15357 1192-1258, looked up)
chain: RASGLGEAGMSAWLRAIGLERYEEGLVRNGWDDLEFLSDITEEDLEEAGVQDPAHKRLLLDTLQLSK
Consider B5, for which, in the assay with EphA2 SAM domain R950E, the Kd was found to be 1.3 ± 0.1 µM and the dH was -5 kcal/mol.

B6: SHIP2 SAM domain H1219E (domain or fragment, human, UniProt O15357 1192-1258, looked up)
chain: RASGLGEAGMSAWLRAIGLERYEEGLVENGWDDLEFLSDITEEDLEEAGVQDPAHKRLLLDTLQLSK
As for B6, in assay [3], binding was put at a Kd of 4 ± 0.4 µM and the dH was -5.5 kcal/mol. For the same molecule, in the assay with EphA2 SAM domain R950E, the Kd amounted to 11.2 ± 2.7 µM and the dH was -7.5 kcal/mol.

B7: SHIP2 SAM domain D1235K (domain or fragment, human, UniProt O15357 1192-1258, looked up)
chain: RASGLGEAGMSAWLRAIGLERYEEGLVHNGWDDLEFLSDITEEKLEEAGVQDPAHKRLLLDTLQLSK
With B7, in the assay with EphA2 SAM domain K956D, the Kd is 7 ± 3 µM and the dH is -0.8 kcal/mol.
